Assay results taken from the supplement of paper PMC9112550, “Optimization of the antimicrobial peptide Bac7 by deep mutational scanning” (BMC Biology, 2022).

Tested on: Escherichia coli TOP10
Assay: shrunken log2 fold change of peptide-encoding DNA abundance (4.5 h post-induction vs induction); higher = less antimicrobial activity (less host growth inhibition)
Settings: time post-induction: 4.5 h; library: site-saturation at positions 5, 18, 19, 20
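Also: peptides expressed intracellularly from a pBAD plasmid library in pooled LB shake-flask culture, induced with 0.3% L-arabinose, DNA abundance read by NGS, three biological replicates, DESeq2 with apeglm shrinkage.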

Sequence	shrunken log2 fold change
RRIRERPPRLPRPRPRPSPRPRP	0.265
RRIRERPPRLPRPRPRPSQDPRP	-0.137
RRIRERPPRLPRPRPRPSSPPRP	-0.824
RRIRERPPRLPRPRPRPSTAPRP	-0.151
RRIRERPPRLPRPRPRPSTMPRP	-0.925
RRIRERPPRLPRPRPRPSTNPRP	-0.317
RRIRERPPRLPRPRPRPSVYPRP	-0.493
RRIRERPPRLPRPRPRPSWEPRP	-0.25
RRIRERPPRLPRPRPRPSWIPRP	-0.0746
RRIRERPPRLPRPRPRPSYCPRP	-0.715
RRIRERPPRLPRPRPRPSYGPRP	-0.708
RRIRERPPRLPRPRPRPTASPRP	-0.15
RRIRERPPRLPRPRPRPTAYPRP	-0.166
RRIRERPPRLPRPRPRPTDKPRP	-0.234
RRIRERPPRLPRPRPRPTDPPRP	-0.152
RRIRERPPRLPRPRPRPTDVPRP	-0.0755
RRIRERPPRLPRPRPRPTDYPRP	-0.349
RRIRERPPRLPRPRPRPTGQPRP	-0.0359
RRIRERPPRLPRPRPRPTHHPRP	-0.0607
RRIRERPPRLPRPRPRPTITPRP	-0.598
RRIRERPPRLPRPRPRPTKIPRP	-0.19
RRIRERPPRLPRPRPRPTKPPRP	-0.394
RRIRERPPRLPRPRPRPTLGPRP	0.0905
RRIRERPPRLPRPRPRPTMYPRP	-0.162
RRIRERPPRLPRPRPRPTNCPRP	-0.165

Sequence	shrunken log2 fold change
RRIRERPPRLPRPRPRPTNGPRP	-0.163
RRIRERPPRLPRPRPRPTNKPRP	-0.533
RRIRERPPRLPRPRPRPTNTPRP	-0.697
RRIRERPPRLPRPRPRPTNWPRP	0.0202
RRIRERPPRLPRPRPRPTQDPRP	0.217
RRIRERPPRLPRPRPRPTQGPRP	0.555
RRIRERPPRLPRPRPRPTQHPRP	0.239
RRIRERPPRLPRPRPRPTQIPRP	0.0737
RRIRERPPRLPRPRPRPTQMPRP	-0.155
RRIRERPPRLPRPRPRPTQNPRP	0.262
RRIRERPPRLPRPRPRPTQQPRP	0.0931
RRIRERPPRLPRPRPRPTRIPRP	0.17
RRIRERPPRLPRPRPRPTSCPRP	-0.178
RRIRERPPRLPRPRPRPTTEPRP	-0.0421
RRIRERPPRLPRPRPRPTVAPRP	0.075
RRIRERPPRLPRPRPRPTVFPRP	0.0505
RRIRERPPRLPRPRPRPTVTPRP	0.0913
RRIRERPPRLPRPRPRPTWIPRP	-0.268
RRIRERPPRLPRPRPRPTWLPRP	0.289
RRIRERPPRLPRPRPRPTWMPRP	0.0534
RRIRERPPRLPRPRPRPTYLPRP	-0.178
RRIRERPPRLPRPRPRPTYSPRP	-0.578
RRIRERPPRLPRPRPRPVCDPRP	0.078
RRIRERPPRLPRPRPRPVCWPRP	0.337
RRIRERPPRLPRPRPRPVDEPRP	-0.56

Sequence	shrunken log2 fold change
RRIRERPPRLPRPRPRPVEEPRP	-0.127
RRIRERPPRLPRPRPRPVEHPRP	-0.0102
RRIRERPPRLPRPRPRPVEPPRP	0.0248
RRIRERPPRLPRPRPRPVERPRP	-0.00844
RRIRERPPRLPRPRPRPVEYPRP	-0.0437
RRIRERPPRLPRPRPRPVFEPRP	-0.151
RRIRERPPRLPRPRPRPVKEPRP	-0.0153
RRIRERPPRLPRPRPRPVLKPRP	0.0458
RRIRERPPRLPRPRPRPVLVPRP	-0.0151
RRIRERPPRLPRPRPRPVMGPRP	-0.123
RRIRERPPRLPRPRPRPVNAPRP	-0.353
RRIRERPPRLPRPRPRPVPVPRP	0.0913
RRIRERPPRLPRPRPRPVQQPRP	-0.168
RRIRERPPRLPRPRPRPVQWPRP	0.149
RRIRERPPRLPRPRPRPVRWPRP	0.635
RRIRERPPRLPRPRPRPVRYPRP	-0.582
RRIRERPPRLPRPRPRPVSSPRP	-0.215
RRIRERPPRLPRPRPRPVTDPRP	-0.069
RRIRERPPRLPRPRPRPVTGPRP	-0.0257
RRIRERPPRLPRPRPRPVTLPRP	-0.289
RRIRERPPRLPRPRPRPVTVPRP	-0.0984
RRIRERPPRLPRPRPRPVVWPRP	0.33
RRIRERPPRLPRPRPRPVWGPRP	0.259
RRIRERPPRLPRPRPRPWAEPRP	0.0285
RRIRERPPRLPRPRPRPWAFPRP	-0.165

Sequence	shrunken log2 fold change
RRIRERPPRLPRPRPRPWCGPRP	-0.245
RRIRERPPRLPRPRPRPWFGPRP	0.0197
RRIRERPPRLPRPRPRPWFMPRP	-0.688
RRIRERPPRLPRPRPRPWGMPRP	0.115
RRIRERPPRLPRPRPRPWICPRP	-0.378
RRIRERPPRLPRPRPRPWIHPRP	0.105
RRIRERPPRLPRPRPRPWIMPRP	-0.277
RRIRERPPRLPRPRPRPWKFPRP	-0.301
RRIRERPPRLPRPRPRPWKNPRP	-0.0553
RRIRERPPRLPRPRPRPWLLPRP	-1.56
RRIRERPPRLPRPRPRPWMAPRP	-0.0227
RRIRERPPRLPRPRPRPWMSPRP	-0.0212
RRIRERPPRLPRPRPRPWNGPRP	0.208
RRIRERPPRLPRPRPRPWNMPRP	-0.0894
RRIRERPPRLPRPRPRPWPEPRP	-0.0215
RRIRERPPRLPRPRPRPWPSPRP	0.134
RRIRERPPRLPRPRPRPWSYPRP	0.0168
RRIRERPPRLPRPRPRPWTYPRP	-0.104
RRIRERPPRLPRPRPRPWYIPRP	-0.0599
RRIRERPPRLPRPRPRPWYWPRP	0.0516
RRIRERPPRLPRPRPRPYDTPRP	-0.00822
RRIRERPPRLPRPRPRPYDVPRP	-0.000921
RRIRERPPRLPRPRPRPYFCPRP	-0.765
RRIRERPPRLPRPRPRPYHSPRP	-0.133
RRIRERPPRLPRPRPRPYKIPRP	-0.266

Sequence	shrunken log2 fold change
RRIRERPPRLPRPRPRPYKQPRP	-0.049
RRIRERPPRLPRPRPRPYLIPRP	-0.626
RRIRERPPRLPRPRPRPYMGPRP	-1.01
RRIRERPPRLPRPRPRPYMPPRP	-0.429
RRIRERPPRLPRPRPRPYMVPRP	-0.832
RRIRERPPRLPRPRPRPYNRPRP	-0.112
RRIRERPPRLPRPRPRPYQSPRP	-0.0109
RRIRERPPRLPRPRPRPYRAPRP	0.0532
RRIRERPPRLPRPRPRPYSDPRP	-0.308
RRIRERPPRLPRPRPRPYTIPRP	-0.267
RRIRERPPRLPRPRPRPYVRPRP	-0.00133
RRIRERPPRLPRPRPRPYVYPRP	-0.296
RRIRERPPRLPRPRPRPYWVPRP	-0.338
RRIRERPPRLPRPRPRPYWWPRP	-0.142
RRIRERPPRLPRPRPRPYYAPRP	-0.72
RRIRFRPPRLPRPRPRPAAIPRP	1.19
RRIRFRPPRLPRPRPRPACFPRP	0.0876
RRIRFRPPRLPRPRPRPACLPRP	-0.105
RRIRFRPPRLPRPRPRPADGPRP	0.183
RRIRFRPPRLPRPRPRPAEHPRP	0.26
RRIRFRPPRLPRPRPRPAGQPRP	0.171
RRIRFRPPRLPRPRPRPANNPRP	-0.917
RRIRFRPPRLPRPRPRPANVPRP	-0.246
RRIRFRPPRLPRPRPRPARFPRP	0.1
RRIRFRPPRLPRPRPRPARNPRP	0.0979

Sequence	shrunken log2 fold change
RRIRFRPPRLPRPRPRPASYPRP	-0.218
RRIRFRPPRLPRPRPRPATRPRP	0.193
RRIRFRPPRLPRPRPRPATYPRP	-0.191
RRIRFRPPRLPRPRPRPAVPPRP	0.0613
RRIRFRPPRLPRPRPRPAWHPRP	0.259
RRIRFRPPRLPRPRPRPAYGPRP	-0.41
RRIRFRPPRLPRPRPRPAYVPRP	0.678
RRIRFRPPRLPRPRPRPCAAPRP	0.35
RRIRFRPPRLPRPRPRPCANPRP	0.133
RRIRFRPPRLPRPRPRPCCDPRP	-0.239
RRIRFRPPRLPRPRPRPCCEPRP	-0.414
RRIRFRPPRLPRPRPRPCCIPRP	-0.313
RRIRFRPPRLPRPRPRPCCRPRP	-0.332
RRIRFRPPRLPRPRPRPCETPRP	-0.00947
RRIRFRPPRLPRPRPRPCFAPRP	0.153
RRIRFRPPRLPRPRPRPCFCPRP	-0.453
RRIRFRPPRLPRPRPRPCGGPRP	0.12
RRIRFRPPRLPRPRPRPCGQPRP	0.151
RRIRFRPPRLPRPRPRPCHCPRP	-0.0994
RRIRFRPPRLPRPRPRPCHGPRP	-1.45
RRIRFRPPRLPRPRPRPCICPRP	-0.136
RRIRFRPPRLPRPRPRPCIGPRP	-0.1
RRIRFRPPRLPRPRPRPCLYPRP	-0.881
RRIRFRPPRLPRPRPRPCMNPRP	0.0346
RRIRFRPPRLPRPRPRPCNAPRP	-0.23
